{
  "source": "patent US20090069376A1",
  "about": "“VLA-4 Antagonists” (priority 2005, published 2009)",
  "origin": "cited, not measured here",
  "target": "VLA-4 (Homo sapiens, UniProt P13612)",
  "conditions": "early clinical trials",
  "data": [
    {"substance": "natalizumab", "values": [
      {"measurement": "receptor occupancy", "value": "> 80", "unit": "%"}
    ]}
  ]
}
